Measurements reported in PMC314469, “Protein Interaction Networks by Proteome Peptide Scanning” (PLoS Biology, 2004).

T1: Rvs167 SH3 (RV167_YEAST), P39743
T1 chain: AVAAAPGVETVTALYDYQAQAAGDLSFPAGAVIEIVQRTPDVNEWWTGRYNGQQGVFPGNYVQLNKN

T2: Boi2 SH3 (BOI2_YEAST), P39969
T2 chain: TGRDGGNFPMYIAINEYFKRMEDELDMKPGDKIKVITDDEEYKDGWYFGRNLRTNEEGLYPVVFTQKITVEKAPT

T3: Boi1 SH3 (BOI1_YEAST), P38041
T3 chain: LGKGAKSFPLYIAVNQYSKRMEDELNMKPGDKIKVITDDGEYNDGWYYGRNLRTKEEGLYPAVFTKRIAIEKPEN

T4: Yfr024 SH3 (LSB3_YEAST), P43603
T4 chain: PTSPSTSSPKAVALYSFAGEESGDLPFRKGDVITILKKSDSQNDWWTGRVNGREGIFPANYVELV

T5: Yhr016c SH3 (YSC84_YEAST), P32793
T5 chain: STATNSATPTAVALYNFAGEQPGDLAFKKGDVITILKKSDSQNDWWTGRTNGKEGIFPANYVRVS


Molecular target: T1, Rvs167 SH3 (RV167_YEAST), P39743
Assay: SPOT array

Row | Binder | normalised SPOT signal, Boehringer light units (BLU); mean over the file's lines of this peptide
1 | SKDPNRPTKFAFES [YML061C 386-399] | 37.7
2 | SGPPLLPPRNTMKN [YJR083C 215-228] | 25500
3 | SFVPFPPFKLLTFD [YPR071W 44-57] | 68.3
4 | SKFPELPSKVHNAV [YGR264C 141-154] | 20.5
5 | SKGPRTPAKEILEF [YDR206W 310-323] | 53.9
6 | SHLPLIPEKIKSLK [YDR419W 203-216] | 50.3
7 | SGPPPRPKKPSTLK [YNL138W 352-365] | 29
8 | SHSPISPLKIETAP [YOR057W 166-179] | 20.2
9 | SKPPQLPPKSSSLR [YJL056C 343-356] | 140
10 | SGKPLFPGRDYHHQ [YGR040W 221-234] | 105
11 | SELPKSPYRQKPTQ [YHR184W 124-137] | 15.8
12 | SELPTRPSKSKTYN [YNL139C 1447-1460] | 20.6
13 | SHQPYLPIKNKNIV [YDL203C 329-342] | 50.4
14 | SKVPKAPTRETHIP [YML013W 181-194] | 47.3
15 | SKIPMLPSRRTMAG [YHL027W 505-518] | 58400
16 | SENPLLPEKLSQSK [YNR016C 154-167] | 24.9
17 | SHAPTKPTKTYKKW [YOR059C 252-265] | 10
18 | SFAPFFPTKRRGSW [YOR254C 500-513] | 232
19 | SGKPKKPYRRWTPE [YDR464W 666-679] | 196

Molecular target: T2, Boi2 SH3 (BOI2_YEAST), P39969
Assay: SPOT array

Row | Binder | normalised SPOT signal, Boehringer light units (BLU); mean over the file's lines of this peptide
20 | SKDPNRPTKFAFES [YML061C 386-399] | 37.9
21 | SGPPLLPPRNTMKN [YJR083C 215-228] | 65.5
22 | SFVPFPPFKLLTFD [YPR071W 44-57] | 28.7
23 | SKFPELPSKVHNAV [YGR264C 141-154] | 32.6
24 | SKGPRTPAKEILEF [YDR206W 310-323] | 44.4
25 | SHLPLIPEKIKSLK [YDR419W 203-216] | 56.3
26 | SGPPPRPKKPSTLK [YNL138W 352-365] | 84.8
27 | SHSPISPLKIETAP [YOR057W 166-179] | 47
28 | SKPPQLPPKSSSLR [YJL056C 343-356] | 6.6
29 | SGKPLFPGRDYHHQ [YGR040W 221-234] | 54.4
30 | SELPKSPYRQKPTQ [YHR184W 124-137] | 37.1
31 | SELPTRPSKSKTYN [YNL139C 1447-1460] | 39.8
32 | SHQPYLPIKNKNIV [YDL203C 329-342] | 85
33 | SKVPKAPTRETHIP [YML013W 181-194] | 36.6
34 | SKIPMLPSRRTMAG [YHL027W 505-518] | 4640
35 | SENPLLPEKLSQSK [YNR016C 154-167] | 38.8
36 | SHAPTKPTKTYKKW [YOR059C 252-265] | 21.9
37 | SFAPFFPTKRRGSW [YOR254C 500-513] | 350
38 | SGKPKKPYRRWTPE [YDR464W 666-679] | 28

Molecular target: T3, Boi1 SH3 (BOI1_YEAST), P38041
Assay: SPOT array

Row | Binder | normalised SPOT signal, Boehringer light units (BLU); mean over the file's lines of this peptide
39 | SKDPNRPTKFAFES [YML061C 386-399] | 47.1
40 | SGPPLLPPRNTMKN [YJR083C 215-228] | 577
41 | SFVPFPPFKLLTFD [YPR071W 44-57] | 75.4
42 | SKFPELPSKVHNAV [YGR264C 141-154] | 105
43 | SKGPRTPAKEILEF [YDR206W 310-323] | 176
44 | SHLPLIPEKIKSLK [YDR419W 203-216] | 123
45 | SGPPPRPKKPSTLK [YNL138W 352-365] | 138
46 | SHSPISPLKIETAP [YOR057W 166-179] | 196
47 | SKPPQLPPKSSSLR [YJL056C 343-356] | 74.2
48 | SGKPLFPGRDYHHQ [YGR040W 221-234] | 33.8
49 | SELPKSPYRQKPTQ [YHR184W 124-137] | 1670
50 | SELPTRPSKSKTYN [YNL139C 1447-1460] | 138
51 | SHQPYLPIKNKNIV [YDL203C 329-342] | 80.9
52 | SKVPKAPTRETHIP [YML013W 181-194] | 23.4
53 | SKIPMLPSRRTMAG [YHL027W 505-518] | 2650
54 | SENPLLPEKLSQSK [YNR016C 154-167] | 54.4
55 | SHAPTKPTKTYKKW [YOR059C 252-265] | 111
56 | SFAPFFPTKRRGSW [YOR254C 500-513] | 342
57 | SGKPKKPYRRWTPE [YDR464W 666-679] | 109

Molecular target: T4, Yfr024 SH3 (LSB3_YEAST), P43603
Assay: SPOT array

Row | Binder | normalised SPOT signal, Boehringer light units (BLU); mean over the file's lines of this peptide
58 | SKDPNRPTKFAFES [YML061C 386-399] | 162
59 | SGPPLLPPRNTMKN [YJR083C 215-228] | 32900
60 | SFVPFPPFKLLTFD [YPR071W 44-57] | 322
61 | SKFPELPSKVHNAV [YGR264C 141-154] | 1170
62 | SKGPRTPAKEILEF [YDR206W 310-323] | 380
63 | SHLPLIPEKIKSLK [YDR419W 203-216] | 774
64 | SGPPPRPKKPSTLK [YNL138W 352-365] | 2620
65 | SHSPISPLKIETAP [YOR057W 166-179] | 38.9
66 | SKPPQLPPKSSSLR [YJL056C 343-356] | 45000
67 | SGKPLFPGRDYHHQ [YGR040W 221-234] | 2060
68 | SELPKSPYRQKPTQ [YHR184W 124-137] | 440
69 | SELPTRPSKSKTYN [YNL139C 1447-1460] | 4580
70 | SHQPYLPIKNKNIV [YDL203C 329-342] | 1340
71 | SKVPKAPTRETHIP [YML013W 181-194] | 1300
72 | SKIPMLPSRRTMAG [YHL027W 505-518] | 45200
73 | SENPLLPEKLSQSK [YNR016C 154-167] | 196
74 | SHAPTKPTKTYKKW [YOR059C 252-265] | 3670
75 | SFAPFFPTKRRGSW [YOR254C 500-513] | 15400
76 | SGKPKKPYRRWTPE [YDR464W 666-679] | 4000

Molecular target: T5, Yhr016c SH3 (YSC84_YEAST), P32793
Assay: SPOT array

Row | Binder | normalised SPOT signal, Boehringer light units (BLU); mean over the file's lines of this peptide
77 | SKDPNRPTKFAFES [YML061C 386-399] | 236
78 | SGPPLLPPRNTMKN [YJR083C 215-228] | 30000
79 | SFVPFPPFKLLTFD [YPR071W 44-57] | 290
80 | SKFPELPSKVHNAV [YGR264C 141-154] | 132
81 | SKGPRTPAKEILEF [YDR206W 310-323] | 0
82 | SHLPLIPEKIKSLK [YDR419W 203-216] | 136
83 | SGPPPRPKKPSTLK [YNL138W 352-365] | 305
84 | SHSPISPLKIETAP [YOR057W 166-179] | 45.7
85 | SKPPQLPPKSSSLR [YJL056C 343-356] | 2910
86 | SGKPLFPGRDYHHQ [YGR040W 221-234] | 896
87 | SELPKSPYRQKPTQ [YHR184W 124-137] | 0
88 | SELPTRPSKSKTYN [YNL139C 1447-1460] | 375
89 | SHQPYLPIKNKNIV [YDL203C 329-342] | 99.3
90 | SKVPKAPTRETHIP [YML013W 181-194] | 218
91 | SKIPMLPSRRTMAG [YHL027W 505-518] | 103000
92 | SENPLLPEKLSQSK [YNR016C 154-167] | 158
93 | SHAPTKPTKTYKKW [YOR059C 252-265] | 104
94 | SFAPFFPTKRRGSW [YOR254C 500-513] | 998
95 | SGKPKKPYRRWTPE [YDR464W 666-679] | 407
